Assays:
[1] = test system: T1, O=[N+]([O-])c1ccc(O[C@H]2O[C@H](CO)[C@H](O)[C@H](O)[C@H]2O)cc1; test: purified protein; format: biochemical, Pedobacter panaciterrae
T1 construct: recombinant, E. coli BL21 Gold (DE3), pET28(a), N-terminal His-tag kept for kinetics (thrombin site); for crystals His-tag cut off at introduced TEV site

purified protein = substrate: O=[N+]([O-])c1ccc(O[C@H]2O[C@H](CO)[C@H](O)[C@H](O)[C@H]2O)cc1; test: purified protein; format: biochemical, Bacteroides fragilis; conditions: 50 mM sodium phosphate pH 7.5
[2] = 50 mM sodium phosphate pH 7.5, 25.0 °C

## PpaGal (Pedobacter panaciterrae; W227Y)
[1]; [2]
  Km: 3.43 ± 0.34 mM
  kcat: 0.25 ± 0.01 s⁻¹

## PpaGal (Pedobacter panaciterrae)
[1]; 50 mM sodium phosphate pH 7.5
  Km: 3.512 ± 0.413 mM

B1: BfGalB (Bacteroides fragilis NCTC 9343) (protein)
chain: QERVYDISQFGLKANSKKNASPVVRKAIAKIKAECRDGEKVILRFPAGRYNFHEAGSTVREYYISNHDQDNPKKVGIALEDMKNLTIDGQGSEFVFYGRMIPVSLLRSENCVLKNFSIDFEQPHIAQVQVVENDPEKGITFEPAPWVDYRISKDSVFEGLGEGWVMRYSWGIAFDGKTKHVVYNTSDIGCPTKGAFEVAPRRICSPKWKDARLVPGTVVAMRGWGRPTPGIFMSHDVNTSLLDVKVHYAEGMGLLAQLCEDITLDGFGVCLKGDNDPRYFTTQADATHFSGCKGKIVSKNGLYEGMMDDAINVHGTYLKVIKRVDDHTLIGRYMHDQSWGFEWGRPGDDVQFVRSETMELIGKQNQITAIRPYDKGEIRGAREFSITFKEAIDPAINEKSGFGIENLTWTPEVLFAGNTIRNNRARGTLFSTPKKTVVEDNLFDHTSGTAILLCGDCNGWFETGACRDVTIRRNRFINALTNMFQFTNAVISIYPEIPNLKDQQKYFHGGKDGGIVIEDNEFDTFDAPILYAKSVDGLIFRNNVIKTNTEFKPFHWNKDRFLLERVTNVKISE
notes: recombinant, E. coli BL21 Gold (DE3), pET28(a), N-terminal His-tag, thrombin site
Purified protein
  Km: 6.950 ± 0.710 mM
  kcat: 0.753 ± 0.082 s⁻¹

Reference: publication PMC12002104, “Identification and Protein Engineering of Galactosidases for the Conversion of Blood Type B to Blood Type O” (Chembiochem, 2025)
